Results as given in a protein production outcome set (Wang et al. 2014).

Experiment: label from the status in PepcDB records
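Note: failed if final PepcDB status was selected cloned or expressed and not failed if soluble or beyond.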

| Sequence | protein production |
| --- | --- |
| MGHHHHHHSHMEFIVDSVDKTMHIGRQLGSLVNKGDILCLTGDLGTGKTHISKGIAEGLGIDEHITSPTFNIVNEYHSGRLTLYHFDVYRVNDPDEIEAIGFDEYIFGDGVSLIEWANYIEELIPEEYIHIKIEKLPDMGENFRKITINGYGDRYNYIKEIKE | failed |
| MASLRVACVIPTYNGRKDLERLLDSLATQTASFDTLIVDSSSSDGTLELAQARCANVLRIDSKDFNHGGTRQMMVDVHPDYDVYVYMTQDAYVEDIDAIANILLPFADPKVGAVCGRQLPHKNANLLAQHARLFNYPPTSQIKTLADAGTLGIKTPFMSNSFAAYRGEALRAIGGFPRHVILSEDMYVTAKMLIDGWKVAYEGSAVCRHSHNYSLREEFCRYFDIGVFQSREAWIYETFGGIGGEGMRYVKSELKFLGPRRLLWWPMSFVRNALKLLAYKLSKQEKRLPRGLKKKLGMYKRYWDSPYA | failed |
| MSAQSSVQPELAVRQWRTPLELGFLGVVWGCSFLFMRVAAPKFGTVVLVEIRLALGALVLLPFLWLARERFPLHRWPMLAAIGVLNSALPFLLFAWGAQHAPAAVGAICNAMTVLFTALIAFLFFGERIGTRRALALLVGFIGVLVLATGKSAGLSVGPAALAGATASLLYGIGYNLVKRHMGDLPPAASAASTLGCSALLLAPLAWWQWPTTPVPAVAWACATALGVVCTGLAFLMYYRLIQRIGPARASTVTYLVPVFGALLAWSLLGEPLTWTMLVAAVLILGSVAFSQRAR | failed |
| MQKFIIHKGIACPLEYANIDTDQIIPKQFLLAVSKQGFGKHLFHDLRYLDDKESVLNMDFNLNKKEYQNSSILVSFENFGSGSSREHAPWALVDYGIRAIIAPSFADIFKNNALGNGLLTIELAKDEVLEIVDELKKSQDKNIEISLLEKRVFFKDKIFSFDLDDFHRICLLEGLDNIALTLKHEAQIKAYEKNSKSFLV | not failed |
| MDILKTLQKHLGDVETSDFTTNAIEKSQQIAKFSRDMKNINESVGALQVLQIACKKLFNKSMGLEDKDALQASIIKQELREIVENCQFLASPLFDTQLNIAINDEIFSMIVVNPLDLLENVGEFQAYLEEKLNEIKELLGYLSESLSNPKAFMPSFSNQSLKDLLSDNLRA | failed |
| HRYIPTLFFHGWGSSYHAETHMADAIVKAGKTQTIVRAMVAKNGTVTLKGHFRSGDYRPIVEVNFANNRSSDYPTVGRWAKNVVVALQRTYGITSFNMVGHSMGNMAITYYLLANAQNKRLPQLRQQVAIAGHFNGILGMDDSPNQMTLNAAGRPNKLRPAYRQLLGLRRVYPRQQVRVLNIYGDKGDGTHSDGSVSNASSRSLRYLVAARARSYREVKLTGKHAQHSQLHENAQVDRLLIDFLWPTH | not failed |
| AIVKRFEPLLLVPIGFGGILSNLPDAGLAMSAIENAVYAAKPEVMTAFSEVLQLSSYMPADIKQALSSATPLQMTTLHLLAEQYQYSDGM | failed |
| MSGTKLEDSPPCRNWSSASELNETQEPFLNPTDYDDEEFLRYLWREYLHPKEYEWVLIAGYIIVFVVALIGNVLVCVAVWKNHHMRTVTNYFIVNLSLADVLVTITCLPATLVVDITETWFFGQSLCKVIPYLQTVSVSVSVLTLSCIALDRWYAICHPLMFKSTAKRARNSIVIIWIVSCIIMIPQAIVMECSTVFPGLANKTTLFTVCDERWGGEIYPKMYHICFFLVTYMAPLCLMVLAYLQIFRKLWCRQIPGTSSVVQRKWKPLQPVSQPRGPGQPTKSRMSAVAAEIKQIRARRKTARMLMVVLLVFAICYLPISILNVLKRVFGMFAHTEDRETVYAWFTFSHWLVYANSAANPIIYNFLSGKFREEFKAAFSCCCLGVHHRQEDRLTRGRTSTESRKSLTTQISNFDNISKLSEQVVLTSISTLPAANGAGPLQNW | failed |
| SEYKFAKFAATYFQGTTTHSYTRRPLKQPLLYHDDEGDQLAALAVWITILRFMGDLPEPKYHTAMSDGSEKIPVMTKIYETLGKKTYKRELQALQGEGEAQLPEGQKKSSVR | failed |
| AGVSISAQNLIKNEKFATEVTNKVTNPSKATAGEWFIMNNEADGVTTIAWEQTGDAKYPNAMKIDNSGAEKNTSWYKAFLGQRITDGLEKGIYVLTFYAKAKEAGTPVSVYIKQTNEEKNDNGKLNTTFFMRRDYDADAQPNASGAQYNFKIKDADKWTKVVVYYDMGQVVNAISSKKSNPALEVSDTDDDAAILKDCYVAILGQNKGGVVEISDVTLKKK | not failed |
| MLTEMHIAVIGGDARQLEVIRKLVELDAKLSLIGFDQLDHGFTGAAKESIQNLDFTSVDAIILPVAGTNAKGEVDTIFSNEKVSITKEQIENTPEHFTIYSGIGTPYLENLVSTTNRKLIKLFDRDDVAIYNSIPTVEGTLMMVIQHTDYTIHGSNVMVLGFGRTGMSVARAFQSLGAHVKVGARRSEHIARITEMMFSPFHMQDIEKEVGDIDIVINTIPHLVVTANVISKMPAHTLVIDLASKPGGTDFRYAEKRGVKALLAPGLPGIVAPKTAGQILANVLSQLLAEDVIARKENGE | failed |
| MSPSPLISHRAASADLAGMVRQARQRILLQGNVPGFDVARQIELLHGLAESELGRFLLLYRGLNAEWTHRLVTHQPGSGALAPLERVFYERLPAVLATRERHGHFRRALQRHLRPGCVVASVPCGWMSELLALDYSACPGVQLVGIDYDPEALDGATRLAAGHALAGQITLHRQDAWKLDTREGYDLLTSNGLNIYEPDDARVTELYRRFWQALKPGGALVTSFLTPPPALSPDSPWDMQAIDPHDLQLQQLVFTRLIQPRWNALRTHAQTRAQLEEAGFTDLRFEDDRARLFPTVIARKPA | not failed |
| MKGRWVKYLLMGTVVAMLAACSSKPTDRGQQYKDGKFTQPFSLVNQPDAVGAPINAGDFAEQINHIRNSSPRLYGNQSNVYNAVQEWLRAGGDTRNMRQFGIDAWQMEGADNYGNVQFTGYYTPVIQARHTRQGEFQYPIYRMPPKRGRLPSRAEIYAGALSDKYILAYSNSLMDNFIMDVQGSGYIDFGDGSPLNFFSYAGKNGHAYRSIGKVLIDRGEVKKEDMSMQAIRHWGETHSEAEVRELLEQNPSFVFFKPQSFAPVKGASAVPLVGRASVASDRSIIPPGTTLLAEVPLLDNNGKFNGQYELRLMVALDVGGAIKGQHFDIYQGIGPEAGHRAGWYNHYGRVWVLKTAPGAGNVFSG | not failed |
| MIPDELKHYLTDDWYAVVREHKLLELPAKVTVQQISEQYLAHKKSVKSTSASKEVAINDVLDGIVEYFNVMLGSQLLYKFERTQYADVMQKHPDTPLSELYGSFHLLRLFVRLGSMLSYSALDQQSMQNLLTHVQDFLKFLVKNSSIFFSMSNFINVDPEYVRNAQ | failed |
| MAMRDLVNGGAACAVPGSSSSSNPLGALTNALLGSSSKTQERLKEIPNANRSGPRPQFYSEDQQIRSLPGSELDQPLLQPGAQGSEFFRGFRSVDQNGLGAAWDEVQQGGPMPPMGPMFEPVQPTFEGPPQRVLSNFLHSFVESSRGGIPFRPAPVPVLGLSQSDKQCIRDRSSIMARHFFADRGEEFINSQVNALLSSLDIDDGIQARGHVPGRFRELDDYWNESQAVVKPNLHPADNWAAEFNQHGMDHGGPDSWVQSFEQQHGVNGWATEFEQGQSQLMSSQMRSMDMQNIAAMEQTRKLAHTLSQDGNPKFQNSRFLQFVSKMSRGELIIDENQVKQASAPGEWATEYEQQYLGPPSWADQFANEKLSHGPEQWADEFASGRGQQETAEDQWVNEFSKLNVDDWIDEFAEGPVGDSSADAWANAYDEFLNEKNAGKQTSGVYVFSDMNPYVGHPEPMKEGQELFRKGLLSEAALALEAEVMKNPENAEGWRLLGVTHAENDDDQQAIAAMMRAQEADPTNLEVLLALGVSHTNELEQATALKYLYGWLRNHPKYGAIAPPELADSLYHADIARLFNEASQLNPEDADVHIVLGVLYNLSREFDRAITSFQTALQLKPNDYSLWNKLGATQANSVQSADAISAYQQALDLKPNYVRAWANMGISYANQGMYKESIPYYVRALAMNPKADNAWQYLRLSLSCASRQDMIEACESRNLDLLQKEFPL | failed |
| GLTTLIEMIETLSATRTINEVADVVRGAARRILDADGVAFVMRDKDLCWYVDEDAIGPLWKGKRFPMDQCVAGRVMKSGRVVVCPDIYADPDMPHDAYRPTFVKSLAIAPVRPRDPIAAIAVYWARPYDPPPEVLRKLQVVARATASALESGRLNDYLAASLEHGHFLLRELD | failed |
| MGCAEEKKTDVRWATFNIRYDNPQDSLNNWQYRKDRVCQFIKDHELDIVGMQEVLHNQFQDLRAGLPEYDGIGVGRDDGKTAGEYAPLFYRKDKYEVLDSNTFWLAENPDSVGMMGWDAVCVRIATWAKFKDKATGKIFMAVNTHFDHVGEEARRQSALLIIRKIKEIVGERPAVVTGDFNVTDASDAYETITTNEFVMKDAYKTAARVTGVDYTFHDFARIPAEDCEKIDFIFVTPQVLVKSCEIPAEVPEALLSDHNPQLADLELEHHHHHH | failed |
| MGHHHHHHENLYFQSHINEQEREIEKLKRQMAEYGAIIKSLQFRQNSLEDTFIPDLTPKVEPSVNPTGCLLGSNAVHLMRDIKKECDYLGIPDPVPATKPTTQAQDDSQKKAKRSCFGRLFTGPFRRGTSAMKTADEYEKDDRLEELYAQLERDPDP | failed |
| MRAQMKQYNCHEGALPFTKSYLLRPLFNAFLMSPKPFHTTEACIGCKKCEKVCPVGNITVTDRPVWGGNCTQCLACYHVCPVHAVEYLEHHHHHH | failed |
| RYSDAHLHYVDFFQESEGMPALIKAMDAAGVEQSMISGIPVAKKWHEDEPKRPRYYAGDDADAYWYSATDTYVAAALQQLPSDQRKRFHPFLSGFNPVDKNAVSHIERMLDLYPGLWQGIGEVFTRHDDLTALTSGDTPRANNEAMTRIYHLAAERDLPVLLHSNITSKRERNPLYLAEIEEPLRNHPHTRFIWAHAGSSMEIHRHQKQMDFLLPVLTRLLEDYPNLYVDLSWSVLQPYLLDEQGAPRKEWLALVEKYPERFMLGSDVVGRFGSLGEQMHGFKPFLDALPESVAHKVARENFLAVLPKAR | failed |
| MTDKKTTEKKETETAATFTEELTAVLEEIKEEPVKEKKKGEIVTIVNETDIQIGEREYRIVKNHRDAFDPERLGERFSEVLARYDYIVGDWGYEQLRLRGFFDTSNRRAAPDQRIDTLEDYLYEYCNFGCAYFVIERTGERKEKTTHRRRRHKKNNRSNAFVEEKSAPANKNSKPVIRTRKEENKKTTTPKQPSPKKSGKGFTIRQREELEHHHHHH | not failed |
| MNPADVTQLAPAVSTDVSLLSLFWHAHWVVKSIMLGLLGCSVWVWAIAIDKLLLFSRTKRAMDRFEQAFWSGESIDELYRALSAKPTHSMAACFVAAMREWKRSFESHSRSFAGLQMRIEKVMNVSIAREVERLERRLLVLATVGSAGPFVGLFGTVWGIMSSFQSIAASKNTSLAVVAPGIAEALFATAIGLIAAIPATIFYNKFTSEVNRQTQRLEGFADEFSAILSRQIDERT | failed |
| MTIYLHSIQIGVLLFFIFLFISLIPYLIVQYRRYGRINFWRFFVNFSFILYLICAYAMTIFPLPPVSEVAKMTGPKQNLVPFEFVRQFILYSPFNINEPSTWLAALKDSTFIQPFFNLLLTLPFGLYLRYLFKRSFKQTFVLSFLLTLSFELIQRSALFGLYPRPYRLFDVDDLMINTLGSLIGFGIAVTFSRFLPDLDATKAESSRVSLSRRFIAFLVDLVLIFIIGSLFLPIGYYSELIILGLVPLVLKATPGQLLLRIQIKAKNRFRIALRQFLSFGNFALIISAEYFLQRSGTIPQDQLGQNFLLILLFLGLSLLPLLDVLIAFLSKTRKLWYERVSDTEMIAKLKTNEE | failed |
| MRIASLVPSITELLFDLGLADQLVARTGFCIHPEPAVRAVAKVGGTKDVKLDRLRALAPTHVVVNIDENRRETVDEIRTFVPHVIVTHPCAPEDNLALYRLLGGIFGRLEHHHHHH | failed |
| MEYFLENPDHLWYLIAGISFVIELSIMGLSGPLLFFAIASLTTGILVTVGFVEGWQSEIFTVGVLTAIIAAILWKPLKSLQNSKDTTDNSSDMVGLTVLASTEINVSSGSIRYSGIDWQARLAEEANGESISAQSQCVIVAITGNIMLVKSL | failed |
